The values that follow come from patent US20250277790A1.

The target in experiment [1] is L834R EGFR tagged with mTurquoise at the C-terminus, in plasma membrane-derived vesicles from transfected CHO cells (human) (UniProt P00533). The experiment is described as follows: cell-based or functional assay.
Experiment [2] concerns the target human EGFR tagged with the fluorescent protein mTurquoise at the C-terminus (wild-type), in plasma membrane-derived vesicles from transfected CHO cells (human) (UniProt P00533). Briefly: cell-based or functional assay.

Epiregulin (1195EP025 CF, R&D Systems), sequence (O14944 63-108 limits assumed): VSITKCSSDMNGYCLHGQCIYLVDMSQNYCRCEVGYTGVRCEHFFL

In experiment [1], “Epiregulin (1195EP025 CF, R&D Systems) (from UniProt O14944 63-108) (ligand)” displayed an EC50 of Y1068 phosphorylation per EGFR molecule of 5.8 nM, an EC50 of Y1173 phosphorylation per EGFR molecule of 0.7 nM, an Etop of Y1068 phosphorylation per EGFR molecule of 0.2 and an Etop of Y1173 phosphorylation per EGFR molecule of 0.09. For the same substance, in experiment [2], the EC50 of Y1068 phosphorylation per EGFR molecule was 19.5 nM, the EC50 of Y1173 phosphorylation per EGFR molecule came to 16.2 nM, the Etop of Y1068 phosphorylation per EGFR molecule is 0.43 and the Etop of Y1173 phosphorylation per EGFR molecule was 0.16. The βlig (Y1068 vs Y1173), lig vs rho-mEGF in experiment [2] is -0.23.
For the substance “TGFα (239A100, R&D Systems) (from UniProt P01135 40-89) (ligand)”, in experiment [1], the EC50 of Y1068 phosphorylation per EGFR molecule came out at 3.2 nM, the EC50 of Y1173 phosphorylation per EGFR molecule is 0.3 nM, the Etop of Y1068 phosphorylation per EGFR molecule was 0.17 and the Etop of Y1173 phosphorylation per EGFR molecule is 0.12. Besides, in experiment [2], the EC50 of Y1068 phosphorylation per EGFR molecule amounted to 3.4 nM, the EC50 of Y1173 phosphorylation per EGFR molecule worked out at 5.2 nM, the Etop of Y1068 phosphorylation per EGFR molecule stood at 0.59 and the Etop of Y1173 phosphorylation per EGFR molecule amounted to 0.17. In experiment [2], this substance returned a βlig (Y1068 vs Y1173), lig vs rho-mEGF of 0.13.
